Data on six substances can be found in paper PMC5117717.

A word on the Kd: it is the free concentration of one partner at which half of the binding sites on the other are occupied at equilibrium, for simple one-to-one binding. Low values mean a tighter complex, high ones a looser complex. The term stoichiometry N denotes the number of molecules, sites or subunits per partner or assembly.

Test [1] addresses HumRadA33 (Pyrococcus furiosus) (UniProt O74036). Description: ITC; 25 °C; peptide titrated into protein; 50 mM Tris–HCl (pH 8.5), 250 mM NaCl, 5 mM MgCl2; single-site model. For orientation: In ITC the heat of successive injections is recorded.
Test [2] has as its target HumRadA2 (Pyrococcus furiosus) (UniProt O74036). Kind of test: ITC; 25 °C; peptide titrated into protein; 50 mM Tris–HCl (pH 7.5), 150 mM NaCl, 5 mM MgCl2; single-site model.
Test [3] has as its target HumRadA1 (first humanised RadA protein) (Pyrococcus furiosus) (UniProt O74036). Kind of test: ITC; 25 °C; peptide titrated into protein; single-site model; the buffer for HumRadA1 is not listed.
Test [4] addresses Alexa Fluor 488-labelled BRC4 peptide (human). Kind of test: fluorescence polarisation; direct binding; 10 nM Alexa Fluor 488-labelled BRC4 peptide constant, protein titrated; 25 °C, 100 mM Tris (pH 7.5), 200 mM KCl, 1.25% glycerol; single-site fit.
For test [5], the target named is RadA oligomerisation peptide. Description: DSF (thermal shift). Particulars: read off a plot.
Test [6] has as its target unlabelled BRC4 repeat (E. coli-produced). Description: DSF (thermal shift). The following applies: read off a plot.
The next test addresses ATP-Mg2+. Kind of test: DSF (thermal shift). Particulars: read off a plot.
Test [7] deals with ChimRAD51 (archeal human chimeric RadA/RAD51/RadA protein) (Pyrococcus furiosus | human) (UniProt O74036). Description: ITC; 25 °C; ChimRAD51 dialysed against 20 mM K/phosphate (pH 8.0) and 192 mM KCl.

Regarding RadA oligomerisation peptide, the dissociation constant (Kd) was 14000 nM in test [1], 3400 nM in test [2] and 1800 nM in test [3].
As to RAD51 oligomerisation peptide, the Kd in test [1] was determined as 800 nM; in test [3] it was 24000 nM.
“ChimRAD51 (archeal human chimeric RadA/RAD51/RadA protein) (from UniProt O74036 108-165; Q06609 156-261; O74036 278-349)” displayed a Kd in test [4] of 4 nM. In other words, the single-digit nanomolar range.
Take “PfRadA monomeric C-terminal ATPase domain (from residue 108, L2 loop deleted) I169M; Y201A; V202Y; L213Q; V215L; Q216Y; E219S; D220A; K221M; D267M; L274E; Y275F”: the other: ΔT (DSF thermal shift on ligand addition) in test [5] was determined as 2.7 °C; in test [6], 0.15 °C; with ATP-Mg2+ it was 6.1 °C.
“unlabelled BRC4 repeat (E. coli-produced) (peptide)” registered a Kd in test [1] of 33 nM. In test [7], this substance came in with a stoichiometry N of 1.
Turning to “PfRadA monomeric C-terminal ATPase domain (from residue 108, L2 loop deleted) I169M; Y201A; V202Y; E219S; D220A; K221M”, in test [6], the other: ΔT (DSF thermal shift on ligand addition) is 0.3 °C.
